One series concerns the target T1, YvcJ (Bacillus subtilis, UniProt O06973).
T1 construct: 6His-tagged recombinant YvcJ
T1 sequence (O06973 1-295): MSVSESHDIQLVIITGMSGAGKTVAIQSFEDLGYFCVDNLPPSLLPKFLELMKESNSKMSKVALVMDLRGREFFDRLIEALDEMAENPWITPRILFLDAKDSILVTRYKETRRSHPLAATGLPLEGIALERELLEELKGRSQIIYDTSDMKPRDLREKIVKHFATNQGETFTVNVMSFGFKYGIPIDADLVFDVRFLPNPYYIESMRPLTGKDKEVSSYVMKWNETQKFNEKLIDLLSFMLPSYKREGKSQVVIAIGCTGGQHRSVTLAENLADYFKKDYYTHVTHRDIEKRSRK
In words: thermal shift assay (SYPRO Orange) with apparent KD; supported by limited proteolysis with endoproteinase Glu-C. The class given is binding.

Series [1] has as its target T2, YvcJ, purified 6His-tagged protein (Bacillus subtilis, UniProt O06973 1-295).
T2 chain: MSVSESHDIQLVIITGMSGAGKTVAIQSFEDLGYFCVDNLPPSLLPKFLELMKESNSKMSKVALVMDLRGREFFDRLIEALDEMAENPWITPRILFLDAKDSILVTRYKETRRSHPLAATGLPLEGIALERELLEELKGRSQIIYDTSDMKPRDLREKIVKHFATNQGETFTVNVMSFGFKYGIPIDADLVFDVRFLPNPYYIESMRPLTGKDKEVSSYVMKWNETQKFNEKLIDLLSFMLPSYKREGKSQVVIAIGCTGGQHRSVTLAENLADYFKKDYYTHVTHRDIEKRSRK

Series [2] deals with T3, GlmS, glucosamine-6-phosphate synthase from B. subtilis, with a C-terminal 6His-tag (Bacillus subtilis 168, UniProt P0CI73 1-600).
T3 sequence (looked up): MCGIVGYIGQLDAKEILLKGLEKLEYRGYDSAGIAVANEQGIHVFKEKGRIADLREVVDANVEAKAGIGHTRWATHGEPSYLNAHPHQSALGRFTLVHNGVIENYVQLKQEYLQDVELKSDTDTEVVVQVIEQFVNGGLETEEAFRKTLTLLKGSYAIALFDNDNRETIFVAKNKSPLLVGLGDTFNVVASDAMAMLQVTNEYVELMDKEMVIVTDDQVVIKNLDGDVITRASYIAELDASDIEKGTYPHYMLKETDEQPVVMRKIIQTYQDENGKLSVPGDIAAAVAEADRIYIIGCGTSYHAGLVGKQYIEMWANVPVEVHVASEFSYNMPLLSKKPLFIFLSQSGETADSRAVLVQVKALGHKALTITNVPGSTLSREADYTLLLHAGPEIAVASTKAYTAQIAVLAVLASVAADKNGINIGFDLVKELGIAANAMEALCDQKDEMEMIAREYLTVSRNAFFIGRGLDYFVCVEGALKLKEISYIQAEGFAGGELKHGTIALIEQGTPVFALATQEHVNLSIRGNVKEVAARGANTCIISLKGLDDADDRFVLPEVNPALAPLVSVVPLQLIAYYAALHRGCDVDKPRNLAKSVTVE
Description: cell-based or functional assay.

For series [3], the target named is T2, YvcJ, purified 6His-tagged protein. In words: ITC; 1 mM UDP-GlcNAc. (Isothermal titration calorimetry measures the heat released or taken up as one component is titrated into another.)
Series [4] concerns the molecule itself. In words: dynamic light scattering; 24 µM YvcJ alone, without or with 0.4 mM UDP-GlcNAc; 25 °C; 50 mM Tris-HCl pH 7.5, 50 mM NaCl, 5% glycerol.
Series [5] concerns the molecule itself. In words: dynamic light scattering; 24 µM YvcJ with 7 µM GlmR (ratio 1:0.3 YvcJ:GlmR) and 0.4 mM UDP-GlcNAc; 25 °C; 50 mM Tris-HCl pH 7.5, 50 mM NaCl, 5% glycerol.

As for `CC(=O)N[C@H]1[C@@H](OP(=O)(O)OP(=O)(O)OC[C@H]2O[C@@H](n3ccc(=O)[nH]c3=O)[C@H](O)[C@@H]2O)O[C@H](CO)[C@@H](O)[C@@H]1O` [UDP-GlcNAc], the Kd at YvcJ was found to be 280 ± 470 µM.

B1: GlmR (formerly YvcK), purified 6His-tagged protein (natural protein)
chain: MGQKPKIAIFGGGTGLSVLLRGLKHKPVDITAIVTVADDGGSSGRLRNELKIPPPGDIRNVLAALSDVEPLVEDLFQHRFNKGNDLTGHSLGNLILAAMTNITGDFFHAVTEMSKVLNVRGKVLPAANASVVLHAEMEDGRVVSGESTIPEYGQRIKRVFLTPEQIDPLPETIDVIREADLIIIGPGSLYTSILPNLLVPKIGEEVIKAPAKKVYICNVMTQPGETLHYTAADHVKALNQHMGCGFIDTILVNSEDIPDEIKRKYEMESARPVDFDIEELKAMGLEVIRDQIVTYKNDVIRHDTHKVASLLVDLLKE
As to B1, the hydrodynamic size of YvcJ by dynamic light scattering; 24 µM YvcJ titrated with GlmR at a ratio 1:0.3 in the presence of 0.4 mM UDP-GlcNAc in series [1] came out at 124 nm. In addition, the “GlmS specific activity (GlcN6P produced, enzyme-coupled assay with GNA-1, CoASH at 412 nm, 37 °C); 7.3 µM GlmS with 0 to 32.1 µM GlmR, no UDP-GlcNAc” value in series [2] stood at 16 fold. This molecule returned a Kd in series [3] of 9.03 µM.

B2: YvcJ, purified 6His-tagged protein (natural protein, Bacillus subtilis, UniProt O06973 1-295, looked up)
chain: MSVSESHDIQLVIITGMSGAGKTVAIQSFEDLGYFCVDNLPPSLLPKFLELMKESNSKMSKVALVMDLRGREFFDRLIEALDEMAENPWITPRILFLDAKDSILVTRYKETRRSHPLAATGLPLEGIALERELLEELKGRSQIIYDTSDMKPRDLREKIVKHFATNQGETFTVNVMSFGFKYGIPIDADLVFDVRFLPNPYYIESMRPLTGKDKEVSSYVMKWNETQKFNEKLIDLLSFMLPSYKREGKSQVVIAIGCTGGQHRSVTLAENLADYFKKDYYTHVTHRDIEKRSRK
notes: Cloned BamHI/XhoI in pET21: the His tag is probably C-terminal and vector residues may precede Met1 (surmised); also called RapZ homologue; source: purified (Ni2+-NTA resin, PD-10 column) as previously described
For B2, the “stoichiometry N” value in series [4] is about 15 molecules; in series [5], 5 molecules.

By stoichiometry N is commonly meant a count of units in the complex or per binding partner.

These data come from paper PMC7525490, “Uridine diphosphate N-acetylglucosamine orchestrates the interaction of GlmR with either YvcJ or GlmS in Bacillus subtilis” (Scientific Reports, 2020).
